The target in assay [1] is T1, TGF-β2 (Homo sapiens, UniProt P61812).
T1 construct: purchased Genzyme (Cambridge, Mass.)
T1 sequence (P61812 303-414 limits assumed): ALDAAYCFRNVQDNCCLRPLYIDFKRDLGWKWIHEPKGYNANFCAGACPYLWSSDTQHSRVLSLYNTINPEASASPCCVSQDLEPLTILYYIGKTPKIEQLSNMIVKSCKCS
Briefly: Ligand blot analysis of 125I-TGF-β2 binding to PVDF-immobilized proteins. To be noted: SDS-PAGE, PVDF membrane, 125I-TGF-β2 20 pM, 2 h at 25° C. The method, then:
To block free sulfhydryls, some samples were treated with 5 mM IAM for 2 h at 25° C. Equivalent amounts of each protein ([…]) were subjected to SDS-PAGE on 10% slabs. IAM-treated GST-α2 M-peptide fusion proteins were subjected to SDS-PAGE as well. All samples were electro-transferred to PVDF membranes. The membranes were blocked with 5% milk and 0.1% Tween 20 in PBS for 12 h at 4° C. and then rinsed with 0.1% Tween 20 in PBS (PBS-T). […] Biophys. Res. Commun. […] NGF-β was radioiodinated with Iodogen, to a specific activity of 2-5 μCi/μg, using the method recommended by the manufacturer. […] After washing the membranes with PBS-T, bound radioligands were detected by Phosphorlmager analysis.

Assay [2] concerns the target T1, TGF-β2. Briefly: Binding of 125I-TGF-β2 to FP3 and FP4 in solution as determined by FPLC on Superose-12. As to conditions: fusion protein 0.5 μM, 125I-TGF-β2 0.5 nM, 30 min 37° C., n=2. The method, then:
The flow rate was 0.4 ml/min. […] To calibrate the FPLC, the following proteins were subjected to chromatography on the same column: soybean trypsin inhibitor (Mr~21,500, Ve of 14.1 ml), ovalbumin (Mr~45,000, Ve of 12.9 ml), BSA (Mr~66,000, Ve of 12.1 ml), and BSA dimer (Mr~132,000, Ve of 10.9 ml).

The target in assay [3] is T1, TGF-β2. Briefly: Endothelial cell proliferation assay, neutralization of TGF-β2 by fusion proteins. Type of assay: cell-based. The method, then: (§1) Fetal bovine heart endothelial (FBHE) cells were cultured in DMEM supplemented with 10% FBS, 20 ng/ml acidic fibroblast growth factor, and 80 ng/ml basic fibroblast growth factor and passaged at subconfluence with trypsin-EDTA. To perform proliferation assays, the cells were plated at a density of 2×10^4 /well (24 well plates) in DMEM supplemented with 0.2% FBS. […] The fusion proteins were preincubated with the TGF-β for 15 min prior to addition to the cultures. At the completion of an incubation, the cultures were washed 3 times with serum-free DMEM and then allowed to incubate in DMEM with 0.2% FBS for 30 h. [^3 H]Thymidine was added for an additional 18 h; the cells were then harvested and [^3 H]thymidine incorporation was quantitated.

In assay [4] the target is T1, TGF-β2. The assay can be described thus: 125I-TGF-β2 binding to immobilized α2M-MA, solution-phase competition. To be noted: increasing concentrations (4-250 nM). The method, then: The wells were washed three times with PBS-T and blocked with PBS-T for 16 h at 4° C. […] In the presence of a fusion protein (FP) which binds TGF-β, the total concentration of TGF-β [βT ] was related to [βF ], at equilibrium, as follows: [βT ]=[βF ](1+[FP]/KI).

Assay [5] has as its target T2, TGF-β1 (Homo sapiens, UniProt P01137).
T2 construct: purchased R&D Systems (Minneapolis, Minn.)
Briefly: Endothelial cell proliferation assay, neutralization of TGF-β1 by fusion proteins. Type of assay: cell-based. The method, then:
as §1

Another assay relates to RAW 264.7 cells. The assay can be described thus: NO synthesis (nitrite in conditioned medium) by RAW 264.7 cells. The format is cell-based, murine. As to conditions: 250 nM, SFM, 24 h. The method, then: NO synthesis by RAW 264.7 cells was quantitated by measuring the stable NO oxidation product, nitrite, in conditioned medium, as previously described (Anal. Biochem. 126, 131-138 (1982)). […] The fusion proteins were purified and detergent-free. After 24 h, conditioned medium (100 μl) was recovered and nitrite was measured. […] Biol, Chem. 270, 21919-21927 (1995)). The α2 M-induced increase in RAW 264.7 cell NO synthesis is inhibited by the NOS inhibitor, N^G -monomethyl-L-arginine.

The target of assay [6] is T1, TGF-β2. To be noted: read-out: KD for TGF-β2 (either TGF-β isoform); cited from earlier work.
In assay [7] the target is T2, TGF-β1. As to conditions: read-out: KD for TGF-β1 (either TGF-β isoform); cited from earlier work.
The test system of a further assay is FBHE cells. Briefly: Endothelial cell proliferation assay, TGF-β alone. As to conditions: TGF-β 10 pM, 1 h pulse. The format is cell-based, bovine. The method, then:
as §1

B1: FP1: GST-fusion protein with human α2M amino acids 122-415 (protein)
chain: KFRVVSMDENFHPLNELIPLVYIQDPKGNRIAQWQSFQLEGGLKQFSFPLSSEPFQGSYKVVVQKKSGGRTEHPFTVEEFVLPKFEVQVTVPKIITILEEEMNVSVCGLYTYGKPVPGHVTVSICRKYSDASDCHGEDSQAFCEKFSGQLNSHGCFYQQVKTKVFQLKRKEYEMKLHTEAQIQEEGTVVELTGRQSSEITRTITKLSFVKVDSHFRQGIPFFGQVRLVDGKGVPIPNKVIFIRGNEANYYSNATTDEHGLVQFSINTTNVMGTSLTVRVNYKDRSPCYGYQWVS
modifications: free sulfhydryls blocked with iodoacetamide (IAM)
In the case of B1, in the assay with TGF-β2 [1], the “125I-TGF-β2 binding, ligand blot” value is given as “did not bind”.

B2: FP4: GST-fusion protein with human α2M amino acids 798-1082 (protein)
chain: CIRVSVQLEASPAFLAVPVEKEQAPHCICANGRQTVSWAVTPKSLGNVNFTVSAEALESQELCGTEVPSVPEHGRKDTVIKPLLVEPEGLEKETTFNSLLCPSGGEVSEELSLKLPPNVVEESARASVSVLGDILGSAMQNTQNLLQMPYGCGEQNMVLFAPNIYVLDYLNETQQLTPEIKSKAIGYLNTGYQRQLNYKHYDGSYSTFGERYGRNQGNTWLTAFVLKTFAQARAYIFIDEAHITQALIWLSQRQKDNGCFRSSGSLLNNAIKGGVEDEVTLSAYI
modifications: free sulfhydryls blocked with iodoacetamide (IAM)
For B2, the “125I-TGF-β2 binding, ligand blot” value in the assay with TGF-β2 [1] is recorded as “did not bind”. In addition, in the assay with TGF-β2 [2], the “125I-TGF-β2 recovered (co-eluted) with the fusion protein” value worked out at 6%. Moreover, the [3H]thymidine incorporation (% control) was 38 ± 6% with TGF-β2 [3] (FBHE cells, fusion protein (0.2 μM) + TGF-β2 (10 pM), 1 h pulse) and 31 ± 4% with TGF-β1 [5] (FBHE cells, fusion protein (0.2 μM) + TGF-β1 (10 pM), 1 h pulse). For the same molecule, the “Effect on TGF-β2 activity in FBHE proliferation assay” value with TGF-β2 [3] (fusion protein 200 nM, TGF-β2 10 pM) is recorded as “No change in TGF-β activity”. In addition, the “Inhibition of 125I-TGF-β2 binding to immobilized α2M-MA” value with TGF-β2 [4] was “did not inhibit”. In addition, in the assay with TGF-β1 [5] (fusion protein 200 nM, TGF-β1 10 pM), the “Effect on TGF-β1 activity in FBHE proliferation assay” value was “No change in TGF-β activity”. In addition, the “Nitrite production by RAW 264.7 cells” value in the assay on RAW 264.7 cells is listed as “did not increase nitrite production”.

B3: MUG: monomeric murine homologue of human α2M, purified from plasma of CD-1 female mice (protein)
chain: DSKYMVLVPSQLYTETPEKICLHLYQLNETVTVTASLVSQSGRKNLFDELVLDKDLFQCVSFIIPRLSSSDEEDFLYVDIKGPTHEFSKRKAVLVKNKESVVFVQTDKPVYKPGQSVKFRVVSMDKMLRPLNELLPLAYIEDPKKNRIMQWRDIKTENGLKQMSFSLAAEPIQGPYKIVVHKESGEKEEHSFTVMEFVLPRFNVDLKVPNAMSVNDEVLSVTACGKYTYGKPVPGHVKINVCRETETGCREVNSQLDNNGCSTQEVNITELQSKKRNYEVQLFHVNATVTEEGTGLEFSRSGTTKIERITNKLIFLKADSHFRHGIPFFVKVRLVDIKGDPIPNEKVFIKAQELSYTSATTTDQHGLAEFSIDTTCISGSSLHIKVNHKEEDSCSYFYCMEERHASAKHVAYAVYSLSKSYIYLDTETSSILPCNQIHTVQAHFILKGDLGVLKELIFYYLVMAQGSIIQTGNHTHQVEPGEAPVKGKFALEIPVEFSMVPMAKMLIYTILPDGEVIADSVNFEIEKCLRNKVDLRFSTSQSLPASQTRLQVTASPQSLCGLRAVDQSVLLLKPESELSPSWIYNLPGMQQNKFVPSSRLSEDQEDCILYSSWLAEKHTNLVPHGTEKDVYRYVEDMGLTAFTNLMIKLPIICFDYGMVPISAPRVEFDLAFTPEISWSLRTTLSKRPEEPPRKDPSSNDPLTETIRKYFPETWVWDIVTVNSTGLAEVEMTVPDTITEWKAGALCLSNDTGLGLSSVVPLQAFKPFFVEVSLPYSVVRGEAFMLKATVMNYLPTSMQMSVQLEASPDFTAVPVGDDQDSYCLSANGRHTSSWLVTPKSLGNVNFSVSAEAQQSSEPCGSEVATVPETGRKDTVVKVLIVEPEGIKQEHTFSSLFCASDAEISEKMSLVLPPTVVKDSARAHFSVMGDILSSAIRNTQNLLHMPYGCGEQNMVLFAPNIYVLKYLNETQQLTQKIKTKALGFLRAGYQRELNYKHKDGSYSAFGDQNGEREGNTWLTAFVLKSFAQARAFIFIDESHITHAFTWLSQKQKDNGCFRSSGSLFNNAMKGGVDDEMTLSAYITMALLESSLPATHPVVSKALSCLESSWKTIEQERNASFVYTKALMAYAFALAGNQNKRDEILKSLDEEAIKENNSIHWKRPQKSRKSEHHLYKPQASSAEVEMNAYVVLARLTAQPAPSPEDLTLSMSTIMWLTKQQNSNGGFSSTQDTVVALDALSKYGAVTFSRSQKTTLVTIQSTGSFSQKFQVENSNRLLLQQVALPDIPGDYTISVSGEGCVYAQTMLRYNMHLEKQLSAFAIWVQTVPLTCNNPKGHNSFQISLEISYTGSRPASNMVIADVKMLSGFIPLKPTVKKLERLEHVSRTEVSNNNVLIYLDQVTNQTLAFSFIIQQDIPVRNLQPAIVKVYDYYETDEMAFAEYSSPCSTDKQNV
As usually defined, the Kd is the free concentration of one partner at which half of the binding sites on the other are occupied at equilibrium, for simple one-to-one binding. For the molecule B3, the Kd with TGF-β2 [6] and with TGF-β1 [7] was about 1000 nM throughout. Besides, in the assay with TGF-β2 [1], the “125I-TGF-β2 binding, ligand blot” value is reported as “only trace levels”.

B4: TGF-β2: transforming growth factor-β2 from Genzyme (protein, UniProt P61812 303-414, looked up)
Transforming growth factor …: T1 sequence (P61812 303-414 limits assumed)
For the molecule B4, the “Decrease of [3H]thymidine incorporation” value in the assay with FBHE cells stood at 57%.

B5: FP2: GST-fusion protein with human α2M amino acids 364-613 (protein)
chain: RGNEANYYSNATTDEHGLVQFSINTTNVMGTSLTVRVNYKDRSPCYGYQWVSEEHEEAHHTAYLVFSPSKSFVHLEPMSHELPCGHTQTVQAHYILNGGTLLGLKKLSFYYLIMAKGGIVRTGTHGLLVKQEDMKGHFSISIPVKSDIAPVARLLIYAVLPTGDVIGDSAKYDVENCLANKVDLSFSPSQSLPASHAHLRVTAAPQSVCALRAVDQSVLLMKPDAELSASSVYNLLPEKDLTGFPGPLND
modifications: free sulfhydryls blocked with iodoacetamide (IAM)
As for B5, the “125I-TGF-β2 binding, ligand blot” value in the assay with TGF-β2 [1] is listed as “did not bind”.

B6: FP5: GST-fusion protein with human α2M amino acids 1053-1302 (protein)
chain: DNGCFRSSGSLLNNAIKGGVEDEVTLSAYITIALLEIPLTVTHPVVRNALFCLESAWKTAQEGDHGSHVYTKALLAYAFALAGNQDKRKEVLKSLNEEAVKKDNSVHWERPQKPKAPVGHFYEPQAPSAEVEMTSYVLLAYLTAQPAPTSEDLTSATNIVKWITKQQNAQGGFSSTQDTVVALHALSKYGAATFTRTGKAAQVTIQSSGTFSSKFQVDNNNRLLLQQVSLPELPGEYSMKVTGEGCVYLQ
modifications: free sulfhydryls blocked with iodoacetamide (IAM)
Regarding B6, the “125I-TGF-β2 binding, ligand blot” value in the assay with TGF-β2 [1] is “did not bind”.

The values are drawn from patent publication US6329500A, “Transforming growth factor-β binding site” (University of Virginia Patent Foundation, priority 1999, dated 2001).
